Reference: the supplement of paper PMC6757056
± gives the standard deviation of the averaged measurements.

B1: library; a variant is named by its letters at N, in order (parent)
chain: GCUGUCACCGGUGUAUUACCCUAGUGGUCGACCGGUCUGAUGAGUCUNNNNNNAGACGAAACAGC

Experiments:
hypoxanthine [1] = variants of: B1; assay: FACS-Seq fitted mean relative fluorescence mCherry/BFP without ligand (log10 relative fluorescence); ligand: hypoxanthine (xanthine aptamer); higher = higher reporter protein expression; conditions: HEK293T, ligand present: no
Summary of the method: (§1)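 Sorting into 6 bins by mCherry/BFP followed 48 h of incubation with or without ligand. The cells were enriched HEK293T libraries lentivirally bearing an mCherry reporter with the ribozyme switch and an EF1α-BFP marker, and bin genomic DNA was PCR-amplified, barcoded and sequenced on MiSeq. Fluorescence is the fitted normal mean of the bin counts. Means were fitted on log10(mCherry/BFP), scaled to five spiked-in control ribozymes.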

hypoxanthine [2] = variants of: B1; assay: normalized RNA/DNA level with ligand (relative to sTRSVctl = 100) (log10 (% of sTRSVctl)); ligand: hypoxanthine (xanthine aptamer); higher = less ribozyme self-cleavage, higher mRNA level; conditions: ligand concentration (+) RNA-Seq: 5 mM, HEK293T, reporter: mCherry (pCS4076), ligand present: yes
Summary of the method: (§2)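 Total RNA, extracted with EDTA 72 h after HEK293T cells were transfected with 4 µg per 6-well well of reporter-linked ribozyme switch library plasmids, was reverse-transcribed, amplified, barcoded and sequenced. Ligand, if used, was added 1 h before transfection. RNA level was derived from RNA reads divided by DNA reads and normalized to a spiked-in non-cleaving sequence or to the top sequences. This was multiplied by 100 and log10-transformed, with the top set of 25 sequences and a ≥100 DNA read minimum.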

hypoxanthine [3] = variants of: B1; assay: normalized RNA/DNA level without ligand (relative to sTRSVctl = 100) (log10 (% of sTRSVctl)); ligand: hypoxanthine (xanthine aptamer); higher = less ribozyme self-cleavage, higher mRNA level; conditions: HEK293T, reporter: mCherry (pCS4076), ligand present: no
Summary of the method: as §2

hypoxanthine [4] = variants of: B1; assay: FACS-Seq fitted mean relative fluorescence mCherry/BFP with ligand (log10 relative fluorescence); ligand: hypoxanthine (xanthine aptamer); ligand concentration (+) FACS-Seq: 5 mM; higher = higher reporter protein expression; conditions: HEK293T, ligand present: yes
Summary of the method: as §1

CUCGGU
FACS-Seq fitted mean (log10) (hypoxanthine [1]): -0.663 ± 0.081 | normalized RNA/DNA level with ligand (log10) (hypoxanthine [2]): 1.94 ± 0.022 | normalized RNA/DNA level without ligand (log10) (hypoxanthine [3]): 1.85 ± 0.041 | FACS-Seq fitted mean (log10) (hypoxanthine [4]): -0.785 ± 0.082

CUCGGC
FACS-Seq fitted mean (log10) (hypoxanthine [1]): 0.2237 ± 0.00057 | normalized RNA/DNA level with ligand (log10) (hypoxanthine [2]): 1.97 ± 0.12 | normalized RNA/DNA level without ligand (log10) (hypoxanthine [3]): 1.92 ± 0.093 | FACS-Seq fitted mean (log10) (hypoxanthine [4]): 0.24 ± 0.018

CUCGGG
FACS-Seq fitted mean (log10) (hypoxanthine [1]): 0.547 ± 0.055 | normalized RNA/DNA level with ligand (log10) (hypoxanthine [2]): 1.923 ± 0.0029 | normalized RNA/DNA level without ligand (log10) (hypoxanthine [3]): 1.657 ± 0.0028 | FACS-Seq fitted mean (log10) (hypoxanthine [4]): 0.46 ± 0.0048

AUCUAA
FACS-Seq fitted mean (log10) (hypoxanthine [1]): 0.268 ± 0.023 | normalized RNA/DNA level with ligand (log10) (hypoxanthine [2]): 1.905 ± 0.019 | normalized RNA/DNA level without ligand (log10) (hypoxanthine [3]): 1.78 ± 0.022 | FACS-Seq fitted mean (log10) (hypoxanthine [4]): 0.411 ± 0.03

CUGCAG
FACS-Seq fitted mean (log10) (hypoxanthine [1]): 0.429 ± 0.068 | normalized RNA/DNA level with ligand (log10) (hypoxanthine [2]): 1.96 ± 0.02 | normalized RNA/DNA level without ligand (log10) (hypoxanthine [3]): 1.73 ± 0.066 | FACS-Seq fitted mean (log10) (hypoxanthine [4]): 0.677 ± 0.016

GUGGAU
FACS-Seq fitted mean (log10) (hypoxanthine [1]): 0.3032 ± 0.0022 | normalized RNA/DNA level with ligand (log10) (hypoxanthine [2]): 1.917 ± 0.019 | normalized RNA/DNA level without ligand (log10) (hypoxanthine [3]): 1.74 ± 0.05 | FACS-Seq fitted mean (log10) (hypoxanthine [4]): 0.467 ± 0.024

GUGGAA
FACS-Seq fitted mean (log10) (hypoxanthine [1]): 0.0876 ± 0.0021 | normalized RNA/DNA level with ligand (log10) (hypoxanthine [2]): 1.88 ± 0.031 | normalized RNA/DNA level without ligand (log10) (hypoxanthine [3]): 1.61 ± 0.0033 | FACS-Seq fitted mean (log10) (hypoxanthine [4]): -0.0768 ± 0.16

AUCUUG
FACS-Seq fitted mean (log10) (hypoxanthine [1]): 0.269 ± 0.0029 | normalized RNA/DNA level with ligand (log10) (hypoxanthine [2]): 1.846 ± 0.015 | normalized RNA/DNA level without ligand (log10) (hypoxanthine [3]): 1.59 ± 0.039 | FACS-Seq fitted mean (log10) (hypoxanthine [4]): 0.48 ± 0.04

AUGAUA
FACS-Seq fitted mean (log10) (hypoxanthine [1]): -0.373 ± 0.027 | normalized RNA/DNA level with ligand (log10) (hypoxanthine [2]): 1.9 ± 0.036 | normalized RNA/DNA level without ligand (log10) (hypoxanthine [3]): 1.736 ± 0.013 | FACS-Seq fitted mean (log10) (hypoxanthine [4]): -0.00691 ± 0.00025

AUGAUG
FACS-Seq fitted mean (log10) (hypoxanthine [1]): -0.144 ± 0.025 | normalized RNA/DNA level with ligand (log10) (hypoxanthine [2]): 1.794 ± 0.0069 | normalized RNA/DNA level without ligand (log10) (hypoxanthine [3]): 1.32 ± 0.027 | FACS-Seq fitted mean (log10) (hypoxanthine [4]): 0.458 ± 0.12

GUGACG
FACS-Seq fitted mean (log10) (hypoxanthine [1]): 0.259 ± 0.081 | normalized RNA/DNA level with ligand (log10) (hypoxanthine [2]): 1.828 ± 0.0026 | normalized RNA/DNA level without ligand (log10) (hypoxanthine [3]): 1.37 ± 0.044 | FACS-Seq fitted mean (log10) (hypoxanthine [4]): 0.523 ± 0.031

GUGACU
FACS-Seq fitted mean (log10) (hypoxanthine [1]): -0.666 ± 0.018 | normalized RNA/DNA level with ligand (log10) (hypoxanthine [2]): 1.92 ± 0.02 | normalized RNA/DNA level without ligand (log10) (hypoxanthine [3]): 1.88 ± 0.049 | FACS-Seq fitted mean (log10) (hypoxanthine [4]): -0.229 ± 0.049

CUGUUA
FACS-Seq fitted mean (log10) (hypoxanthine [1]): 0.263 ± 0.085 | normalized RNA/DNA level with ligand (log10) (hypoxanthine [2]): 1.95 ± 0.057 | normalized RNA/DNA level without ligand (log10) (hypoxanthine [3]): 1.66 ± 0.027 | FACS-Seq fitted mean (log10) (hypoxanthine [4]): 0.493 ± 0.053

AUGCCA
FACS-Seq fitted mean (log10) (hypoxanthine [1]): 0.0727 ± 0.02 | normalized RNA/DNA level with ligand (log10) (hypoxanthine [2]): 1.91 ± 0.07 | normalized RNA/DNA level without ligand (log10) (hypoxanthine [3]): 1.821 ± 0.018 | FACS-Seq fitted mean (log10) (hypoxanthine [4]): 0.158 ± 0.03

CUGUGG
FACS-Seq fitted mean (log10) (hypoxanthine [1]): 0.575 ± 0.018 | normalized RNA/DNA level with ligand (log10) (hypoxanthine [2]): 1.91 ± 0.027 | normalized RNA/DNA level without ligand (log10) (hypoxanthine [3]): 1.45 ± 0.089 | FACS-Seq fitted mean (log10) (hypoxanthine [4]): 0.842 ± 0.073

AUGCGA
FACS-Seq fitted mean (log10) (hypoxanthine [1]): 0.0429 ± 0.015 | normalized RNA/DNA level with ligand (log10) (hypoxanthine [2]): 1.89 ± 0.076 | normalized RNA/DNA level without ligand (log10) (hypoxanthine [3]): 1.556 ± 0.0057 | FACS-Seq fitted mean (log10) (hypoxanthine [4]): 0.395 ± 0.06

AUGCGG
FACS-Seq fitted mean (log10) (hypoxanthine [1]): -0.0506 ± 0.036 | normalized RNA/DNA level with ligand (log10) (hypoxanthine [2]): 1.752 ± 0.0084 | normalized RNA/DNA level without ligand (log10) (hypoxanthine [3]): 1.31 ± 0.12 | FACS-Seq fitted mean (log10) (hypoxanthine [4]): 0.504 ± 0.014

UUGUGG
FACS-Seq fitted mean (log10) (hypoxanthine [1]): 0.447 ± 0.013 | normalized RNA/DNA level with ligand (log10) (hypoxanthine [2]): 2.01 ± 0.025 | normalized RNA/DNA level without ligand (log10) (hypoxanthine [3]): 1.89 ± 0.0069 | FACS-Seq fitted mean (log10) (hypoxanthine [4]): 0.511 ± 0.067
